Here are results for 140 substances from the supplement of paper PMC12042874.

± gives the uncertainty stated by the source.

The data set can be described thus: amyloid nucleation score (Sup35N fusion, yeast selection) (log enrichment); library NNK1; higher = more nucleation; inactive = no reads after selection. The essentials:
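Yeast lacking psi expressed peptides of 20 random codons fused to Sup35N, received 100 μM copper sulfate for 24 hours, and were then grown for 7 days at 30°C on medium lacking adenine and uracil. Illumina sequencing of input and output plasmid inserts provided the reads. Nucleation scores are DiMSum log enrichments of output over input, centred on the mode of non-aggregating sequences. Any sequence with under 100 input reads was excluded.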

Substance RVSRFELAIVSVEGSYWVPE showed an amyloid nucleation score of 0.607 ± 0.36.

In turn, VQAVIWWRGRDYGRHRSRPW came in with an amyloid nucleation score of -0.35 ± 0.35.

GLLVGLQQCYNYGWKGSDCN came in with an amyloid nucleation score of 0.504 ± 0.75.

ALNLKCIRLSGV showed an amyloid nucleation score of 0.496 ± 0.47.

In the case of CTDVNSQ, the amyloid nucleation score stood at 0.033 ± 0.9.

Take NWGWGGEFRRNMFRIVS: the amyloid nucleation score entry is “inactive”.

Substance MRFSPVPCLNF yielded an amyloid nucleation score of 0.353 ± 0.43.

With LFVNM, the amyloid nucleation score entry is “inactive”.

On to EERVFVYRLWYQSLVRHYEL, for which the amyloid nucleation score was -0.204 ± 0.41.

Consider SLSRNYHPFRAKIFLCLGRN, for which the amyloid nucleation score amounted to 0.097 ± 0.82.

SFVFGHIVKK came in with an amyloid nucleation score of 2.72 ± 0.086.

Regarding VALWYFCCVVAYYGGARLVS, the amyloid nucleation score amounted to 2.06 ± 0.33.

Substance FKTRSRNRLVCCYEESRTDL yielded an amyloid nucleation score of 0.536 ± 0.34.

Take SFSEICWVVGHYMNGFSQMR: the amyloid nucleation score came to 1.89 ± 0.47.

The substance WYRTRIQRRIFFNRAIYSTA had an amyloid nucleation score of 0.368 ± 0.85.

As for YVCDKFYGNAQCF, the amyloid nucleation score is 0.644 ± 0.4.

GSARYCSYCWRTSDITWIIH came in with an amyloid nucleation score of 1.71 ± 0.13.

Take NKNMSNKFVSIMQKFFSIDG: the amyloid nucleation score came out at 2.72 ± 0.13.

Take YVTDVDF: the amyloid nucleation score result was “inactive”.

With LRIRYT, the amyloid nucleation score worked out at 2.42 ± 0.17.

FIIITYFGLGKTVYARRKCC: the amyloid nucleation score was -1.92 ± 2.7.

In turn, FEAFFNGHSSREYLVISVRL showed an amyloid nucleation score of 0.153 ± 1.2.

The substance LSRFEQGHELLHKSVIYCEV showed an amyloid nucleation score of -0.304 ± 0.32.

As to SYFVIFSGTM, the amyloid nucleation score result was “inactive”.

Take VTACGYRMRRCRCFCECNGT: the amyloid nucleation score was determined as 0.72 ± 0.57.

TMNNFVLKSAFLKSAFTTGV displayed an amyloid nucleation score of -1.04 ± 2.1.

For the substance LKWSSGHGKIGSNVWRRVYC, the amyloid nucleation score came out at 0.42 ± 1.2.

Take RFNYVYFINRNMNEPRRGSL: the amyloid nucleation score was found to be 6.452 ± 0.061.

Regarding RACFRVIYWFSLLDKVGETV, the amyloid nucleation score is -0.427 ± 1.1.

Consider WCWLCVKRR, for which the amyloid nucleation score was -0.108 ± 0.56.

LRNRMGNDIISILITIPKIV: the amyloid nucleation score is 0.217 ± 0.34.

In turn, MLRAGY gave an amyloid nucleation score of -0.292 ± 0.63.

In the case of RPNCIVINGVKWYSAYWIGI, the amyloid nucleation score was -0.915 ± 0.67.

Consider HGVLCSWSRLKTRFDQNGIS, for which the amyloid nucleation score is 0.616 ± 1.2.

Take SLKSSCRKNRLM: the amyloid nucleation score came to 0.048 ± 0.5.

As for DWSRQFYMFVNVKARLFRGT, the amyloid nucleation score is -0.05 ± 0.69.

Substance GHCGPEKREIDVAGVWVERS came in with an amyloid nucleation score of -0.098 ± 1.3.

Regarding EVVFNYTKHQVTIAV, the amyloid nucleation score entry is “inactive”.

Substance FKMSWSTPARYNNGLTRLIF displayed an amyloid nucleation score of -0.379 ± 0.63.

For the substance TCIISTDGCMQAGHFVGDRR, the amyloid nucleation score was -0.69 ± 0.54.

As for NEFKFKVRTKEFRFEVCLKY, the amyloid nucleation score entry is “inactive”.

As for LNFIHNGM, the amyloid nucleation score was -0.444 ± 1.9.

As for ISRADVWVWFLLSMSRREYF, the amyloid nucleation score was determined as 0.268 ± 0.55.

With SVRCCRFGIGGYWP, the amyloid nucleation score is -1.07 ± 1.

In the case of LSATGGMGIRF, the amyloid nucleation score is -0.318 ± 1.2.

For the substance RQDQLFPICEDSTT, the amyloid nucleation score turned out to be 0.612 ± 0.97.

In the case of TRCCGFKRGGFVSYWMGSRP, the amyloid nucleation score is 1.01 ± 0.51.

DGLKFGFEINPAVRQ: the amyloid nucleation score turned out to be 1.11 ± 0.48.

In turn, THMGWVMHYSYETTPHARPG showed an amyloid nucleation score of 3.84 ± 0.14.

With IPDVEGQGG, the amyloid nucleation score was found to be 0.469 ± 0.72.

As for SVRVPWLASFCSKFMSGAYI, the amyloid nucleation score is 0.058 ± 0.41.

As to SNYDIWRPILSRWSDREGWV, the amyloid nucleation score was 1.34 ± 0.36.

The substance LPSSGA returned an amyloid nucleation score of -0.019 ± 0.64.

Consider ALYKSPLVNRSYAFLYSGA, for which the amyloid nucleation score turned out to be 0.964 ± 0.69.

The substance SWYGVYPFEIGFESGLESTL returned an amyloid nucleation score of -0.429 ± 0.41.

In the case of ALLNVQVRGYVGLGR, the amyloid nucleation score was 1.4 ± 0.52.

Take LIDLCGLCFEAR: the amyloid nucleation score was 0.181 ± 0.26.

In the case of GSLLICEWLRFSRGRGVRSY, the amyloid nucleation score was determined as 1.11 ± 0.79.

For GTRCMALALGLHIYIFIRGG, the amyloid nucleation score was -0.161 ± 0.46.

DETQKPRVLCMLLLSKSTEN showed an amyloid nucleation score of 0.558 ± 0.34.

IFGGLH came in with an amyloid nucleation score of 0.631 ± 0.5.

SFMSGSFEWPRSYRALGFKA yielded an amyloid nucleation score of -0.719 ± 1.2.

In turn, EMRLCRPCREYLLKSPT registered an amyloid nucleation score of 0.31 ± 0.37.

As for GFFGFIGRVMVIGRWREVPG, the amyloid nucleation score is -0.265 ± 0.24.

For FVHDLWLGYGVNFLIAVMCS, the amyloid nucleation score came to 0.209 ± 0.34.

As for KLSGCMISKILFSPCWRD, the amyloid nucleation score stood at 5.896 ± 0.058.

In the case of MSFTSAY, the amyloid nucleation score was -0.238 ± 0.56.

The substance QRMACWYLDKLESLSKLACM returned an amyloid nucleation score of 0.612 ± 0.82.

As to HEYNCRG, the amyloid nucleation score result is “inactive”.

In turn, NFIFVR had an amyloid nucleation score of 0.706 ± 0.53.

Regarding SFLDCLRCCKCAGMR, the amyloid nucleation score is 1.5 ± 0.18.

Turning to TTGKFDLFGDYHRGSLYSSV, the amyloid nucleation score is -0.768 ± 0.49.

The substance GGIVLDTTHRVGYGRTSPCV registered an amyloid nucleation score of 0.289 ± 1.2.

FHVSDV returned an amyloid nucleation score of -0.125 ± 0.98.

For IFSHIPCLITFSNDQ, the amyloid nucleation score worked out at 2.13 ± 0.43.

FLRNNKIPVVFFSPS: the amyloid nucleation score entry was “inactive”.

Regarding GVRYQALFLSAVL, the amyloid nucleation score stood at 0.09 ± 0.21.

SFVIYSKKCKNGSVNTVACS showed an amyloid nucleation score of 0.142 ± 0.62.

In turn, LSYDSYSYIGLGGSLEIFWA gave an amyloid nucleation score of 0.182 ± 0.71.

The substance MLYFRVGVSFGLFVDNFVGF showed an amyloid nucleation score of 2.12 ± 0.13.

Take DVDTRRT: the amyloid nucleation score entry is “inactive”.

As to MQTVNFVFTRLIFISDFTIQ, the amyloid nucleation score amounted to 0.688 ± 0.26.

On to FHFKFSSLLIVSFVLGFCLV, for which the amyloid nucleation score was found to be 0.027 ± 1.7.

On to QNNCSPARPTAHNYVGGHAT, for which the amyloid nucleation score was determined as 0.656 ± 1.

ENNTGSVETLYRCSEKLVLE returned an amyloid nucleation score of 0.228 ± 0.27.

Take GRMNKNYA: the amyloid nucleation score result was “inactive”.

Turning to IDTNCRNCGYREFASKCELR, the amyloid nucleation score amounted to 0.456 ± 0.26.

For the substance YVSTIN, the amyloid nucleation score was determined as 0.629 ± 0.42.

Take MRLNYGNITLSFGSPMMQTI: the amyloid nucleation score was 0.682 ± 0.15.

Turning to YNIVMMDS, the amyloid nucleation score was 0.108 ± 0.36.

On to YRCNT, for which the amyloid nucleation score was -0.244 ± 0.32.

KYSEDLIRQEDVVRYMGTMS displayed an amyloid nucleation score of -0.056 ± 0.24.

Regarding NTTAWPVYFYLWFRKTGWPL, the amyloid nucleation score was -0.371 ± 0.78.

LAEVQRKTR gave an amyloid nucleation score of -0.291 ± 0.59.

The substance YMRRVLPRCHPIWNGFPFAR registered an amyloid nucleation score of 0.254 ± 0.93.

PIHDLRKLIYVTPEFYWGFY came in with an amyloid nucleation score of 0.561 ± 0.48.

GMNPQTHAPVILTLGVQNIR: the amyloid nucleation score was 2.2 ± 0.14.

LDSGQAPSMLLWGSNYWEKL yielded an amyloid nucleation score of 0.808 ± 0.9.

Regarding QYLFSGLEEMPIVTVLS, the amyloid nucleation score was -0.393 ± 0.31.

KNKPL had an amyloid nucleation score of 2.72 ± 0.15.

Substance CLDNWLGGHNSLSSYSG showed an amyloid nucleation score of 0.538 ± 0.37.

Substance VWFCLCLYM came in with an amyloid nucleation score of 1.95 ± 0.091.

RSLCHAQRFGWMC showed an amyloid nucleation score of -1.7 ± 1.

Substance LCLISDMPKHFGCGYTKCSL registered an amyloid nucleation score of -1.17 ± 0.63.

With RSNNSFCIPLSFMCYVYQAT, the amyloid nucleation score was -0.172 ± 1.6.

CACKLVQSIYLCESLGHPRS returned an amyloid nucleation score of 5.73 ± 0.06.

In the case of CQPLLSMYLVHYTA, the amyloid nucleation score was 0.116 ± 0.2.

In turn, VYRVAKASM had an amyloid nucleation score of -0.35 ± 1.9.

CTGIWSLLSCTTFRHIATVV registered an amyloid nucleation score of -0.469 ± 1.7.

SVMDCSFFVLPLCFGCDQKF came in with an amyloid nucleation score of -0.987 ± 0.46.

The substance TLMGQWGWFSSVAYNNAGIV yielded an amyloid nucleation score of -1.36 ± 0.86.

For GATTMFEVGICNENRKVYVE, the amyloid nucleation score is -0.179 ± 0.29.

As to PKKLRMYLPMHLSTPKRRLV, the amyloid nucleation score was determined as 0.565 ± 0.58.

For VNFYDRAYRIWCCRNASE, the amyloid nucleation score stood at 3.34 ± 0.088.

GNGFVL gave an amyloid nucleation score of 0.999 ± 0.45.

SDYTYAFPCMRGWCWYFAVS: the amyloid nucleation score is -0.691 ± 1.7.

The substance VRVPLRSKMSNPRLMSRQAA displayed an amyloid nucleation score of 0.089 ± 0.49.

MLTWCPTSEKVVLLFRSQRG: the amyloid nucleation score is -0.383 ± 1.7.

The substance GPRYRLLLWECCRHDLSLSC gave an amyloid nucleation score of 0.72 ± 0.43.

Take VEVCRTNWLVEL: the amyloid nucleation score was 1.09 ± 0.57.

As to NYRRQLSFLRLSGQDMLEGK, the amyloid nucleation score came to 0.184 ± 0.53.

In the case of VRMNCMDYQFNYLSLLLRTI, the amyloid nucleation score was -0.401 ± 0.45.

Regarding SFFRFVQNVSRSAGVSDSAM, the amyloid nucleation score was -0.508 ± 0.42.

On to YQTGYGGCGYCRLVRGCVKV, for which the amyloid nucleation score was -0.442 ± 0.33.

On to FQDLSLAVSQCLPCVIIGDC, for which the amyloid nucleation score is -0.131 ± 0.44.

With GTVSGYYVRVGNFAMYYQAY, the amyloid nucleation score turned out to be 1.91 ± 0.17.

Substance LLLIRSYKCNGRRIRICSLL showed an amyloid nucleation score of -0.862 ± 0.76.

Substance HNHRRQDGIRNA had an amyloid nucleation score of 1.12 ± 0.14.

For TNFDGYLFRFHIWRGCLVT, the amyloid nucleation score stood at 0.188 ± 1.

In turn, ALRIHGLCFEVVCMRIWSRR had an amyloid nucleation score of 0.436 ± 0.46.

The substance LRKSHYFTY yielded an amyloid nucleation score of -0.429 ± 0.58.

Substance APAAIINFLDPHICARMAMF yielded an amyloid nucleation score of -0.513 ± 1.3.

In turn, KLVIETSPCVRSHVSLVQKR displayed an amyloid nucleation score of -0.277 ± 0.26.

LYYFCLAINFSLGEGTAFVQ gave an amyloid nucleation score of -0.133 ± 0.84.

ILIFVNSVYRNVSSR came in with an amyloid nucleation score of 5.27 ± 0.056.

As for SKASMEGYW, the amyloid nucleation score worked out at 0.739 ± 0.54.

For FGYYFVNGIFLYSSVRYDNM, the amyloid nucleation score was found to be 3.63 ± 0.076.

The substance PISCFTDHMQMFMRSNGRGL came in with an amyloid nucleation score of 1.16 ± 0.29.

Consider ALDIFTNTKSVIGYVGIGKC, for which the amyloid nucleation score was 0.194 ± 0.52.

As for NSSVGVESHIFSIVDKMNTW, the amyloid nucleation score result was “inactive”.
